Assay results as given in PMC9249326, “Analgesic effects of nerve growth factor‐directed monoclonal antibody on diabetic neuralgia in an animal model” (FEBS Open Bio, 2022).

Columns and labels:
[1] = molecular target: T1, 6xHis-tagged human NGF (nerve growth factor) (Homo sapiens, UniProt P01138); test: ELISA; NGF-6xHis (2 ug/mL) coated at 4 °C overnight; antibodies in threefold series from 100 nM, 1 h; detected with HRP goat anti-human IgG (H + L), TMB, OD450; settings: both partners purified
T1 construct: nerve growth factor (NGF), human; also called NGF-6xHis; human NGF-6xHis; source: HEK293, transient transfection (pCAT1.0 vector)
T1 sequence (P01138 19-241): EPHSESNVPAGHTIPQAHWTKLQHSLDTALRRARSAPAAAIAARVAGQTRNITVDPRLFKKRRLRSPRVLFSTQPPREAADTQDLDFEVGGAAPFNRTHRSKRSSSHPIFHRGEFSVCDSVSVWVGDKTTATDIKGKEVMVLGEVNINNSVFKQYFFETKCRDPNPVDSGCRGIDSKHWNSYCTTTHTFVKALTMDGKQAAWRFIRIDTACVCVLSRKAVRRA

NGF-6xHis-biotin = molecular target: T2, NGF-6xHis-biotin (human, UniProt P01138, biotin); test: ELISA; blocking ELISA: TrkA-Fc (2 ug/mL) coated at 4 °C overnight; threefold dilutions of antibody 1 h at room temperature, then NGF-6xHis-biotin (0.5 ug/mL) 30 min; HRP-streptavidin, TMB; settings: both partners purified
T2 construct: nerve growth factor (NGF), human; source: HEK293, transient transfection (pCAT1.0 vector)
T2 sequence (P01138 122-241): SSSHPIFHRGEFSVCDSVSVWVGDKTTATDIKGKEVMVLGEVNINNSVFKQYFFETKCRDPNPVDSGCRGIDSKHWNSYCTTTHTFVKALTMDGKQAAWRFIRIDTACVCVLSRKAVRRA

B1: tanezumab (antibody, V domains shown)
VH: QVQLQESGPGLVKPSETLSLTCTVSGFSLIGYDLNWIRQPPGKGLEWIGIIWGDGTTDYNSAVKSRVTISKDTSKNQFSLKLSSVTAADTAVYYCARGGYWYATSYYFDYWGQGTLVTVSS
VL: DIQMTQSPSSLSASVGDRVTITCRASQSISNNLNWYQQKPGKAPKLLIYYTSRFHSGVPSRFSGSGSGTDFTFTISSLQPEDIATYYCQQEHTLPYTFGQGTKLEIK
notes: Whole antibody, held on Protein A sensors
EC50 [1]: 9.34 pM | IC50 (NGF-6xHis-biotin): 1.67 nM
